One experiment addresses Receptor (human) (UniProt P47871). Briefly: receptor binding competition.
The target of experiment [1] is T1, human glucagon receptor (human, UniProt P47871 26-477). Nature of the experiment: cell-based or functional assay.
Experiment [2] deals with T1, human glucagon receptor. Briefly: SPA competition vs 125I-glucagon, receptor membranes.
The target in experiment [3] is T1, human glucagon receptor. Briefly: cell-based or functional assay. This is another data set of the same source.
For experiment [4], the target named is T2, human GLP-1 receptor (human, UniProt P43220 24-463). Nature of the experiment: cell-based or functional assay.
Experiment [5] addresses T1, human glucagon receptor. Briefly: cell-based or functional assay. This is another data set of the same source.
Experiment [6] has as its target T2, human GLP-1 receptor. Nature of the experiment: cell-based or functional assay. The source holds these as a separate data set.
Experiment [7] deals with T1, human glucagon receptor. Briefly: cell-based or functional assay. This is another data set of the same source.
For experiment [8], the target named is T2, human GLP-1 receptor. Nature of the experiment: cell-based or functional assay. This is another data set of the same source.
Experiment [9] deals with T1, human glucagon receptor. Nature of the experiment: cell-based or functional assay. This is another data set of the same source.
Experiment [10] concerns the target T1, human glucagon receptor. Nature of the experiment: SPA competition vs 125I-glucagon, receptor membranes. The source holds these as a separate data set.
The target of experiment [11] is T1, human glucagon receptor. Briefly: cell-based or functional assay. This is another data set of the same source.
Experiment [12] has as its target T2, human GLP-1 receptor. Briefly: cell-based or functional assay. The source holds these as a separate data set.

Like-named read-outs stand apart in the source and are kept apart here. Bridge positions count the residues as written; N and C are the ends. Square brackets hold non-standard residues; d marks the D form. Ends that are not written are not given here. Abu(4-SO3H) = N[C@@H](CCS(=O)(=O)O)C(=O)O; PhLac = O=C(O)[C@@H](O)Cc1ccccc1

A word on the IC50: it is the concentration that gives 50% inhibition. Lower therefore signals higher potency.

Receptor (human), sequence (P47871 26-477): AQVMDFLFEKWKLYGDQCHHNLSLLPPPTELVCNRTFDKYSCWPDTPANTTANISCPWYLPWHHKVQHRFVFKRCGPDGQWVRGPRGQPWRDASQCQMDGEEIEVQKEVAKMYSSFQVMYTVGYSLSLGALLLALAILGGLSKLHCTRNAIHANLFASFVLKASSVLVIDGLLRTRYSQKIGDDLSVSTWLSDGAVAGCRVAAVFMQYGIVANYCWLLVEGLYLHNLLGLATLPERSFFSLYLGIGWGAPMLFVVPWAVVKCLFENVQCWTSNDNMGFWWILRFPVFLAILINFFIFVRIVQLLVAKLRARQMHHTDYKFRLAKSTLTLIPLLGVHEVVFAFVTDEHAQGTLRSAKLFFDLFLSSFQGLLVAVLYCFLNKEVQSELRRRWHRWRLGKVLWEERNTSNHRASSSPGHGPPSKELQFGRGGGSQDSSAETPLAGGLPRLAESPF
T1 sequence (P47871 26-477): as above

Turning to [Ac-F6, E9]G(6-29)-NH2, the IC50 with Receptor (human) was 37.1 nM.
The same measure, in the same setting: the same measure for [3,4-2(F)-F6, E9]G(6-29)-NH2: 36.7 nM; for [BMA6, E9]G(6-29)-NH2: 80.6 nM; for [MCA6, E9]G(6-29)-NH2: 114 nM.
The same measure, in the same setting: the same measure for [2-Nal6, E9]G(6-29)-NH2: 95.2 nM.
On to SQGTFTSEYSKYLDSRRAQDFVQFLLNT-NH2 [[desHis^1, Glu^9, Phe^25, Leu^27]Glucagon-NH2], for which the “cAMP Induction EC50” value with human glucagon receptor [1] is 81 nM. In the experiment with human glucagon receptor [2], this molecule displayed a half-maximal inhibitory concentration (IC50) of 12.6 nM.
On to SQLTFTSEYSKYLDSRRAQDFVQWLMNT-NH2 (also called Cmpd) [[desHis^1, Leu^4, Glu^9] Glucagon-NH2], for which, in the experiment with human glucagon receptor [1], the “cAMP Induction EC50” value was 318 nM and the “cAMP Inhibition IC50” value is 102 nM. The same molecule yielded a half-maximal inhibitory concentration (IC50) with human glucagon receptor [2] of 36.9 nM.
Consider HAEGT[PhLac]TSDYSKYLDERRAKDFVQWLMDT-NH2 (lactam 16-20; also: PLA6 linked to Thr5 by an ester bond (depsipeptide)) [[H1A2E3-O-PLA6, D9, E16K20(Lactam), D28] G(1-29)], for which the “Glucagon antagonism IC50 (inhibit 0.8 nM glucagon)” value with human glucagon receptor [3] is 9.65 nM. Further, the “GLP-1 agonism EC50” value in the experiment with human GLP-1 receptor [4] was found to be 6.2 nM.

B1: [PLA6, E16K20(lactam), E21, D28] G(6-29) (peptide)
peptide: [PhLac]TSDYSKYLDERRAKEFVQWLMDT-NH2
modifications: lactam 11-15; N-terminus assumed
SMILES: CSCC[C@H](NC(=O)[C@H](CC(C)C)NC(=O)[C@H](Cc1c[nH]c2ccccc12)NC(=O)[C@H](CCC(N)=O)NC(=O)[C@@H](NC(=O)[C@H](Cc1ccccc1)NC(=O)[C@H](CCC(=O)O)NC(=O)[C@@H]1CCCCNC(=O)CC[C@H](NC(=O)[C@H](CC(=O)O)NC(=O)[C@H](CC(C)C)NC(=O)[C@H](Cc2ccc(O)cc2)NC(=O)[C@H](CCCCN)NC(=O)[C@H](CO)NC(=O)[C@H](Cc2ccc(O)cc2)NC(=O)[C@H](CC(=O)O)NC(=O)[C@H](CO)NC(=O)[C@@H](NC(=O)[C@@H](O)Cc2ccccc2)[C@@H](C)O)C(=O)N[C@@H](CCCNC(=N)N)C(=O)N[C@@H](CCCNC(=N)N)C(=O)N[C@@H](C)C(=O)N1)C(C)C)C(=O)N[C@@H](CC(=O)O)C(=O)N[C@H](C(N)=O)[C@@H](C)O
Take B1: the “Glucagon antagonism IC50 (inhibit 0.2-0.8 nM glucagon)” value with human glucagon receptor [5] worked out at 8.6 nM. The “GLP-1 agonism EC50” value with human GLP-1 receptor [6] was 11.1 nM.
Regarding AEGT[PhLac]TSDYSKYLDERRAKDFVQWLMDT-NH2 (lactam 15-19; also: PLA6 linked to Thr5 by an ester bond (depsipeptide)) [[A2E3-O-PLA6, D9, E16K20(Lactam), D28] G(2-29)], the “Glucagon antagonism IC50 (inhibit 0.8 nM glucagon)” value worked out at 4.68 nM with human glucagon receptor [3] and 21.8 nM with human glucagon receptor [7]. Also, the “GLP-1 agonism EC50” value with human GLP-1 receptor [4] was 14 nM; in the experiment with human GLP-1 receptor [8], 18 nM.

B2: [PLA^6, D^9]Glucagon(aa6-29)-COOH (peptide)
peptide: [PhLac]TSDYSKYLDSRRAQDFVQWLMNT-OH
modifications: N-terminus assumed
SMILES: CSCC[C@H](NC(=O)[C@H](CC(C)C)NC(=O)[C@H](Cc1c[nH]c2ccccc12)NC(=O)[C@H](CCC(N)=O)NC(=O)[C@@H](NC(=O)[C@H](Cc1ccccc1)NC(=O)[C@H](CC(=O)O)NC(=O)[C@H](CCC(N)=O)NC(=O)[C@H](C)NC(=O)[C@H](CCCNC(=N)N)NC(=O)[C@H](CCCNC(=N)N)NC(=O)[C@H](CO)NC(=O)[C@H](CC(=O)O)NC(=O)[C@H](CC(C)C)NC(=O)[C@H](Cc1ccc(O)cc1)NC(=O)[C@H](CCCCN)NC(=O)[C@H](CO)NC(=O)[C@H](Cc1ccc(O)cc1)NC(=O)[C@H](CC(=O)O)NC(=O)[C@H](CO)NC(=O)[C@@H](NC(=O)[C@@H](O)Cc1ccccc1)[C@@H](C)O)C(C)C)C(=O)N[C@@H](CC(N)=O)C(=O)N[C@H](C(=O)O)[C@@H](C)O
Turning to B2, the “IC50 (cAMP, inhibit 0.1 nM Glucagon)” value in the experiment with human glucagon receptor [9] was 13.2 nM. Further, in the experiment with human glucagon receptor [10], the IC50 amounted to 15.5 nM.

B3: [PLA^6, D^9]Glucagon(aa6-29)-NH2 (peptide)
peptide: [PhLac]TSDYSKYLDSRRAQDFVQWLMNT-NH2
modifications: N-terminus assumed
SMILES: CSCC[C@H](NC(=O)[C@H](CC(C)C)NC(=O)[C@H](Cc1c[nH]c2ccccc12)NC(=O)[C@H](CCC(N)=O)NC(=O)[C@@H](NC(=O)[C@H](Cc1ccccc1)NC(=O)[C@H](CC(=O)O)NC(=O)[C@H](CCC(N)=O)NC(=O)[C@H](C)NC(=O)[C@H](CCCNC(=N)N)NC(=O)[C@H](CCCNC(=N)N)NC(=O)[C@H](CO)NC(=O)[C@H](CC(=O)O)NC(=O)[C@H](CC(C)C)NC(=O)[C@H](Cc1ccc(O)cc1)NC(=O)[C@H](CCCCN)NC(=O)[C@H](CO)NC(=O)[C@H](Cc1ccc(O)cc1)NC(=O)[C@H](CC(=O)O)NC(=O)[C@H](CO)NC(=O)[C@@H](NC(=O)[C@@H](O)Cc1ccccc1)[C@@H](C)O)C(C)C)C(=O)N[C@@H](CC(N)=O)C(=O)N[C@H](C(N)=O)[C@@H](C)O
As to B3, the “IC50 (cAMP, inhibit 0.1 nM Glucagon)” value with human glucagon receptor [9] was 6.9 nM. This molecule returned an IC50 with human glucagon receptor [10] of 13.8 nM.
Turning to [PhLac]TS[Abu(4-SO3H)]YSKYLDSRRAQDFVQWLMNT-NH2 [[PLA^6, hCys(SO3)^9]Glucagon(aa6-29)-NH2], in the experiment with human glucagon receptor [9], the “IC50 (cAMP, inhibit 0.2 nM Glucagon)” value stood at 40.2 nM. Besides, the IC50 with human glucagon receptor [10] stood at 14.2 nM.
Take SQGTTSDYSKYLDSRRAQDFVQWLMNT-NH2 (His1 and Phe6 deleted; also called Cmpd) [[desHis^1, desPhe^6] Glucagon-NH2]: in the experiment with human glucagon receptor [1], the “cAMP Induction EC50” value was 1180 nM. In the experiment with human glucagon receptor [2], this molecule showed an IC50 of 130 nM.
On to [PhLac]TSDYSKYLDERRAQDFVEWLMKT-NH2 (lactam 19-23; not fully specified) [[PLA6, E16, E24K28(lactam)]G(6-29)], for which the “Glucagon IC50” value with human glucagon receptor [11] was 22 nM. Also, in the experiment with human GLP-1 receptor [12], the “GLP-1 EC50” value was found to be 289 nM. Also, the “Glucagon antagonism IC50 (inhibit 0.2-0.8 nM glucagon)” value with human glucagon receptor [5] was found to be 22.4 nM. Further, in the experiment with human GLP-1 receptor [6], the “GLP-1 agonism EC50” value came to 289 nM.
Turning to SQGT[PhLac]TSDYSKYLDERRAKDFVQWLMDT-NH2 (lactam 15-19; also: ester (depsipeptide) bond Thr5-PLA6) [[S2Q3-O-PLA6, D9, E16K20(Lactam), D28] G(2-29)], the results for the “Glucagon antagonism IC50 (inhibit 0.8 nM glucagon)” value with human glucagon receptor [3] and with human glucagon receptor [7] were 3.14 nM and 20.9 nM, respectively. Also, the “GLP-1 agonism EC50” value with human GLP-1 receptor [4] stood at 45.7 nM; with human GLP-1 receptor [8], 112 nM.

B4: [PLA6, E16, K20E24(lactam), D28]G(6-29) (peptide)
peptide: [PhLac]TSDYSKYLDERRAKDFVEWLMDT-NH2
modifications: lactam 15-19; N-terminus assumed
SMILES: CSCC[C@H](NC(=O)[C@H](CC(C)C)NC(=O)[C@H](Cc1c[nH]c2ccccc12)NC(=O)[C@@H]1CCC(=O)NCCCC[C@H](NC(=O)[C@H](C)NC(=O)[C@H](CCCNC(=N)N)NC(=O)[C@H](CCCNC(=N)N)NC(=O)[C@H](CCC(=O)O)NC(=O)[C@H](CC(=O)O)NC(=O)[C@H](CC(C)C)NC(=O)[C@H](Cc2ccc(O)cc2)NC(=O)[C@H](CCCCN)NC(=O)[C@H](CO)NC(=O)[C@H](Cc2ccc(O)cc2)NC(=O)[C@H](CC(=O)O)NC(=O)[C@H](CO)NC(=O)[C@@H](NC(=O)[C@@H](O)Cc2ccccc2)[C@@H](C)O)C(=O)N[C@@H](CC(=O)O)C(=O)N[C@@H](Cc2ccccc2)C(=O)N[C@@H](C(C)C)C(=O)N1)C(=O)N[C@@H](CC(=O)O)C(=O)N[C@H](C(N)=O)[C@@H](C)O
Turning to B4, in the experiment with human glucagon receptor [11], the “Glucagon IC50” value is 74 nM. Besides, the “GLP-1 EC50” value with human GLP-1 receptor [12] was determined as 239 nM. Further, the “Glucagon antagonism IC50 (inhibit 0.2-0.8 nM glucagon)” value with human glucagon receptor [5] is 74.4 nM. Moreover, the “GLP-1 agonism EC50” value in the experiment with human GLP-1 receptor [6] is 240 nM.

B5: [PLA^6, E^9]Glucagon (aa6-29 + CEX)-NH2 (peptide)
peptide: [PhLac]TSEYSKYLDSRRAQDFVQWLMNTGPSSGAPPPS-NH2
modifications: N-terminus assumed
SMILES: CSCC[C@H](NC(=O)[C@H](CC(C)C)NC(=O)[C@H](Cc1c[nH]c2ccccc12)NC(=O)[C@H](CCC(N)=O)NC(=O)[C@@H](NC(=O)[C@H](Cc1ccccc1)NC(=O)[C@H](CC(=O)O)NC(=O)[C@H](CCC(N)=O)NC(=O)[C@H](C)NC(=O)[C@H](CCCNC(=N)N)NC(=O)[C@H](CCCNC(=N)N)NC(=O)[C@H](CO)NC(=O)[C@H](CC(=O)O)NC(=O)[C@H](CC(C)C)NC(=O)[C@H](Cc1ccc(O)cc1)NC(=O)[C@H](CCCCN)NC(=O)[C@H](CO)NC(=O)[C@H](Cc1ccc(O)cc1)NC(=O)[C@H](CCC(=O)O)NC(=O)[C@H](CO)NC(=O)[C@@H](NC(=O)[C@@H](O)Cc1ccccc1)[C@@H](C)O)C(C)C)C(=O)N[C@@H](CC(N)=O)C(=O)N[C@H](C(=O)NCC(=O)N1CCC[C@H]1C(=O)N[C@@H](CO)C(=O)N[C@@H](CO)C(=O)NCC(=O)N[C@@H](C)C(=O)N1CCC[C@H]1C(=O)N1CCC[C@H]1C(=O)N1CCC[C@H]1C(=O)N[C@@H](CO)C(N)=O)[C@@H](C)O
Consider B5, for which the “IC50 (cAMP, inhibit 0.1 nM Glucagon)” value with human glucagon receptor [9] came to 24.8 nM. For the same molecule, the IC50 with human glucagon receptor [10] is 40.3 nM.

For the origin of these results see patent US20110098217A1 (INDIANA UNIVERSITY RESEARCH AND TECHNOLOGY, published 2011).
